Measured values taken from article PMC4077652, “An Unstable Th Epitope of P. falciparum Fosters Central Memory T Cells and Anti-CS Antibody Responses” (PLoS ONE, 2014).
“And” between values parts separate entries of the source, which are not always exact repeats. Equal entries are not always repeated. Where two headings read alike, the source gives them in different places.

What was measured:
[1] = molecular target: soluble recombinant HLA-DR4 (HLA-DRβ1*04:01) (human); experiment: ELISA
[2] = molecular target: soluble recombinant HLA-DR4 (HLA-DRβ1*04:01) (human); experiment: ELISA; apparent Kd; direct binding of biotin-labeled peptide to DR4 as in the DR-ELISA (72 h), binding reactions set up with 1 µM HLA-DM
[3] = molecular target: soluble recombinant HLA-DR4 (HLA-DRβ1*04:01) (human); experiment: dissociation kinetics (LB3.1 capture, europium-streptavidin time-resolved fluorescence)
[4] = molecular target: soluble recombinant HLA-DR4 (HLA-DRβ1*04:01) (human)
[5] = molecular target: soluble recombinant HLA-DR4 (HLA-DRβ1*04:01) (human); experiment: ELISA; remark: listed apart in the source

Substance | IC50 [1] [nM] | Kd [1] | further results
QNT-5 332-345 peptide, unlabeled | 1700 |  | 
biotin-labeled T*-1 327-338 peptide |  | 42.6 nM | Kd [2]: 51.6 nM; half-life [3]: 63.9 h; half-life with HLA-DM [3]: 4.9 h
biotin-labeled HA 306-318 peptide |  |  | half-life [4]: 620 h
HA 306-318 peptide, unlabeled | 310 |  | IC50 [5]: 172000 nM
biotin-labeled T* 326-345 peptide (NF-54 variant) |  | 248 nM and 123 nM | 
QNT-Y peptide (QNT-5 analogue L335Y), unlabeled | 130 |  | 
